Measured values as given in US20200040059A1.

target: T1, CD96 (UniProt P40200); assay: flow cytometry, cells
T1 sequence (looked up): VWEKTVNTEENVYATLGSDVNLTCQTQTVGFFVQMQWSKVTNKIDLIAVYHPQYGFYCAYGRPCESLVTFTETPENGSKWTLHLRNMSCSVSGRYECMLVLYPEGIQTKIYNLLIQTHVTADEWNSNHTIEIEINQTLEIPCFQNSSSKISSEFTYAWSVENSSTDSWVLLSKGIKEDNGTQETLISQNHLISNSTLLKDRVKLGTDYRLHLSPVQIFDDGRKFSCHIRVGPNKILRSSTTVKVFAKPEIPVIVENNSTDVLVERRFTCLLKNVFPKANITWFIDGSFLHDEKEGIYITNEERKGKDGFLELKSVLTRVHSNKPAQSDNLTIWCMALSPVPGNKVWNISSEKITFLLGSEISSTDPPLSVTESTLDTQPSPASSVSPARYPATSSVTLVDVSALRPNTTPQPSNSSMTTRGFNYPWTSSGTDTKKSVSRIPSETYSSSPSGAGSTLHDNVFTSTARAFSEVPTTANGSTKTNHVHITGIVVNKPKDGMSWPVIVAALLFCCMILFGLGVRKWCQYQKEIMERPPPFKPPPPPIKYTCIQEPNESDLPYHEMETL

CD155 Wild type IgV-Fc, sequence (P15151 24-139 limits assumed): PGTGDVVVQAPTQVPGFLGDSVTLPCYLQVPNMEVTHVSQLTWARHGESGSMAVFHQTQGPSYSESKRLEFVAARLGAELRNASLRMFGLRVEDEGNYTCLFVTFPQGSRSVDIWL
Domain 1: CD80 WT / Domain 2: CD86 WT / Fc (Fc fusion), sequence (chain): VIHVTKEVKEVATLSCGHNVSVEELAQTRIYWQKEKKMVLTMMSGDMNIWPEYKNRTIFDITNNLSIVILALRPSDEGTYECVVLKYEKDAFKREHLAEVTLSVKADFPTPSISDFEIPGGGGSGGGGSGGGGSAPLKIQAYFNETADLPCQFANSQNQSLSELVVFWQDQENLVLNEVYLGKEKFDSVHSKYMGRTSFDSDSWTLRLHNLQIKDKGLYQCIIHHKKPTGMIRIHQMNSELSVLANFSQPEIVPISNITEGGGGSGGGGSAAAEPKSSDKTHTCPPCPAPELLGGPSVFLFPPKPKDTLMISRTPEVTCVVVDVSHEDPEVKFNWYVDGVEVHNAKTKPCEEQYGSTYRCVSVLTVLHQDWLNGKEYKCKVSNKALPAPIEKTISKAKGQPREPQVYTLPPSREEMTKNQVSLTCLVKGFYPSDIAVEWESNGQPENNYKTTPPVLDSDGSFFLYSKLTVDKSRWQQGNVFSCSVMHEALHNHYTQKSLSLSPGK
Domain 1: CD86 WT / Domain 2: CD80 WT / Fc (Fc fusion), sequence (chain): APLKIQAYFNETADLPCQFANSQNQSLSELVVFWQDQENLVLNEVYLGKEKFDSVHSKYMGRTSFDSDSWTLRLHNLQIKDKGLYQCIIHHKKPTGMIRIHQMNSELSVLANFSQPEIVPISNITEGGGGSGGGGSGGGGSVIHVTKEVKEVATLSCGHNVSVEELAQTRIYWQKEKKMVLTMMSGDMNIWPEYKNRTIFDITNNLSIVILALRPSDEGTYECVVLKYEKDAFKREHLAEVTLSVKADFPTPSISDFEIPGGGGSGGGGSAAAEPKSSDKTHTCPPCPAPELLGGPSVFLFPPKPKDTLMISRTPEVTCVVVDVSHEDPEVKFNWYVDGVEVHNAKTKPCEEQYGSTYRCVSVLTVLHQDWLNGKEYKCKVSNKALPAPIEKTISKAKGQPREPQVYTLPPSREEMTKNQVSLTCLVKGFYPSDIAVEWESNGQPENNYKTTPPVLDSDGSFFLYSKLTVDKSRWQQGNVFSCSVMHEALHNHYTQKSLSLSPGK

Row | Substance | MFI
1 | CD155 Wild type IgV-Fc (from UniProt P15151 24-139) (Fc fusion) | 3080
2 | CD155 P18L, L79V, F91S IgV-Fc (from UniProt P15151 24-139) (Fc fusion) | 3280

Further lines, results first:

Row | MFI | Substance
3 | 2510 | CD155 P18T, F91S, R94H IgV-Fc (from UniProt P15151 24-139) (Fc fusion)
4 | 2620 | CD155 A81V, L83P IgV-Fc (from UniProt P15151 24-139) (Fc fusion)
5 | 2680 | CD155 P18S, F91P IgV-Fc (from UniProt P15151 24-139) (Fc fusion)
6 | 147000 | CD155 P18S, F91S IgV-Fc (from UniProt P15151 24-139) (Fc fusion)

target: PD-1-Fc; assay: Fortebio (BLI), PD-1-Fc

Row | Fortebio binding to PD-1-Fc Response Units (Response Units) | Substance
7 | 1.6 | variant PD-L2 IgV-Fc I13V, H15Q, T47A, R76G, V89D (Fc fusion)
8 | 1.25 | variant PD-L2 IgV-Fc I13V, H15Q, T37A, E44D, S48C, S67L, Q82R, V89D (Fc fusion)
9 | 1.2 | variant PD-L2 IgV-Fc H15Q, Q82R, V89D (Fc fusion)
10 | 0.4 | variant PD-L2 IgV-Fc H15Q, N24S, T47A, Q72H, R76G, V89D (Fc fusion)

target: T2, CD226 (human) (UniProt Q15762); assay: flow cytometry, transfected cells
T2 sequence: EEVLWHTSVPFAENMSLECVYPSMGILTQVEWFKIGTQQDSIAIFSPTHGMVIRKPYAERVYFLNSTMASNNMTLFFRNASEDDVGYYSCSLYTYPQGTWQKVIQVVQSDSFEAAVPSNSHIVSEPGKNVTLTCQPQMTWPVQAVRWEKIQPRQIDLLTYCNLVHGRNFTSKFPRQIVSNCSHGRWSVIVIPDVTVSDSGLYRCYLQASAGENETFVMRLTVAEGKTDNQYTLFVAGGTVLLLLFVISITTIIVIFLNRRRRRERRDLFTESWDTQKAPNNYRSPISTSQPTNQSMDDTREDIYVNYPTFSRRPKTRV

Row | Substance | MFI
11 | CD155 Wild type IgV-Fc (from UniProt P15151 24-139) (Fc fusion) | 3720
12 | CD155 P18L, L79V, F91S IgV-Fc (from UniProt P15151 24-139) (Fc fusion) | 5140

The remaining lines, values ahead:

Row | MFI | Substance
13 | 3590 | CD155 P18T, F91S, R94H IgV-Fc (from UniProt P15151 24-139) (Fc fusion)
14 | 409000 | CD155 P18S, F91S IgV-Fc (from UniProt P15151 24-139) (Fc fusion)

target: CD28 (human) (UniProt P10747); assay: flow cytometry, transfected cells

Row | MFI | Substance
15 | 4950 | Domain 1: CD86 WT / Domain 2: CD80 WT / Fc (Fc fusion)
16 | 60300 | Domain 1: CD80 WT / Domain 2: CD86 WT / Fc (Fc fusion)

target: PD-L1 (human) (UniProt Q9NZQ7); assay: flow cytometry, transfected cells
Sequence (Q9NZQ7 19-290 limits assumed): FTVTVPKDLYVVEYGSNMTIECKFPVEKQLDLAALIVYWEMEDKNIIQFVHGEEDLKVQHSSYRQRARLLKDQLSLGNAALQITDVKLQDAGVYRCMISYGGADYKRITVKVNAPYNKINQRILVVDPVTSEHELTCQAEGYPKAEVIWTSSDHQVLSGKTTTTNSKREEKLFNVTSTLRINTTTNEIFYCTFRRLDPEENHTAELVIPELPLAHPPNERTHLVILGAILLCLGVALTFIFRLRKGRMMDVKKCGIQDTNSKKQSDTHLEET

Row | MFI | Substance
17 | 1520 | Domain 1: CD86 WT / Domain 2: CD80 WT / Fc (Fc fusion)
18 | 2080 | Domain 1: CD80 WT / Domain 2: CD86 WT / Fc (Fc fusion)

target: T3, TIGIT (human) (UniProt Q495A1); assay: flow cytometry, transfected cells
T3 sequence: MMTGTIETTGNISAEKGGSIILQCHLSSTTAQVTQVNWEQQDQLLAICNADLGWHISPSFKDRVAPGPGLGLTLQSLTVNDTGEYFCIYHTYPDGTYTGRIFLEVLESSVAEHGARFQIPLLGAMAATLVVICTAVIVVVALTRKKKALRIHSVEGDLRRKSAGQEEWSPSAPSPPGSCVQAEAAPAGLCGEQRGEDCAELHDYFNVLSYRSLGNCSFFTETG

Row | Substance | MFI
19 | CD155 Wild type IgV-Fc (from UniProt P15151 24-139) (Fc fusion) | 2720
20 | CD155 P18L, L79V, F91S IgV-Fc (from UniProt P15151 24-139) (Fc fusion) | 4070

Now from value to substance:

Row | MFI | Substance
21 | 2940 | CD155 P18T, F91S, R94H IgV-Fc (from UniProt P15151 24-139) (Fc fusion)
22 | 2910 | CD155 A81V, L83P IgV-Fc (from UniProt P15151 24-139) (Fc fusion)
23 | 3220 | CD155 P18S, F91P IgV-Fc (from UniProt P15151 24-139) (Fc fusion)

target: human B7-H6 (human) (UniProt Q68D85); assay: flow cytometry, transfected cells
Sequence (Q68D85 25-454): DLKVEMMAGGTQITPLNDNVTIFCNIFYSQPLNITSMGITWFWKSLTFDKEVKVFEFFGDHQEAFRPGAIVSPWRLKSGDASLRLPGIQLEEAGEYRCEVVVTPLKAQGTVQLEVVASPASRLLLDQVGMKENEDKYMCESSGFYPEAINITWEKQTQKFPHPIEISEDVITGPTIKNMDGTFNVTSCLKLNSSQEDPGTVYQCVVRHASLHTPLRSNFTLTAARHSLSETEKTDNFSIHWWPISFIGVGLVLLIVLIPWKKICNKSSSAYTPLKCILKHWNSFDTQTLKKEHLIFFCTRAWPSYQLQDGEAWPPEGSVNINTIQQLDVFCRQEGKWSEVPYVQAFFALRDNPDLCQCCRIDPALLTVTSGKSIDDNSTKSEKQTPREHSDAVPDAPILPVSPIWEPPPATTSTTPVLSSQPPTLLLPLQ

Row | MFI | Substance
24 | 129000 | Domain 1: CD86 WT / Domain 2: Nkp30 WT / Fc (Fc fusion)

target: PD-1 (Homo sapiens (Human)) (UniProt Q15116); assay: flow cytometry, Jurkat/PD-1 cells
Sequence (Q15116 21-288 limits assumed, form in doubt): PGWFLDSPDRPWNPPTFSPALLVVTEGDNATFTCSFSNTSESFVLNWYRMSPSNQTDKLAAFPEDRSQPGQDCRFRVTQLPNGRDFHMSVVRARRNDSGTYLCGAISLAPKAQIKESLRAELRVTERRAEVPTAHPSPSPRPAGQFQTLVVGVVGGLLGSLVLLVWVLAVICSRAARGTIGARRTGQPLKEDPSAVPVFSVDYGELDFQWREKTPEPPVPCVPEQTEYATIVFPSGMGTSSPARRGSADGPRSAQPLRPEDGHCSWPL

Row | MFI at 50 nM | Substance
25 | 53700 | variant PD-L2 IgV-Fc I13V, H15Q, T47A, R76G, V89D (Fc fusion)
26 | 47600 | variant PD-L2 IgV-Fc I13V, H15Q, T37A, E44D, S48C, S67L, Q82R, V89D (Fc fusion)
27 | 49700 | variant PD-L2 IgV-Fc H15Q, Q82R, V89D (Fc fusion)
28 | 32100 | variant PD-L2 IgV-Fc H15Q, N24S, T47A, Q72H, R76G, V89D (Fc fusion)

target: T1, CD96; assay: flow cytometry, CD96-expressing cells

Row | Substance | MFI at 100 nM [MFI] | MFI at 11.1 nM [MFI]
29 | CD155 variant IgV-Fc L79P, L104M (from UniProt P15151 24-139) (Fc fusion) | 2890 | –
30 | CD155 variant IgV-Fc V9L, P18T, Q62R, L79P, F91S, L104M, G111R (from UniProt P15151 24-139) (Fc fusion) | – | 1500
31 | CD155 variant IgV-Fc P18S, T45S, T61K, S65W, S67A, F91S, G111R (from UniProt P15151 24-139) (Fc fusion) | 2220 | –
32 | CD155 variant IgV-Fc P18S, V41A, S42G, T45G, L104N (from UniProt P15151 24-139) (Fc fusion) | 3090 | –

Second part, the substance after the results:

Row | MFI at 100 nM [MFI] | MFI at 11.1 nM [MFI] | Substance
33 | 22800 | – | CD155 variant IgV-Fc P18S, L79P, L104M, T107M (from UniProt P15151 24-139) (Fc fusion)
34 | 5760 | – | CD155 variant IgV-Fc A13R, D23Y, E37P, S42P, Q62Y, A81E (from UniProt P15151 24-139) (Fc fusion)
35 | 3340 | – | CD155 variant IgV-Fc P18L, E37S, Q62M, G80S, A81P, G99Y, S112N (from UniProt P15151 24-139) (Fc fusion)

target: T2, CD226 (human); assay: flow cytometry, CD226-expressing cells

Row | Substance | MFI at 100 nM [MFI] | MFI at 11.1 nM [MFI]
36 | CD155 variant IgV-Fc L79P, L104M (from UniProt P15151 24-139) (Fc fusion) | 8320 | –
37 | CD155 variant IgV-Fc V9L, P18T, Q62R, L79P, F91S, L104M, G111R (from UniProt P15151 24-139) (Fc fusion) | – | 835
38 | CD155 variant IgV-Fc P18S, T45S, T61K, S65W, S67A, F91S, G111R (from UniProt P15151 24-139) (Fc fusion) | 2110 | –
39 | CD155 variant IgV-Fc P18S, V41A, S42G, T45G, L104N (from UniProt P15151 24-139) (Fc fusion) | 11400 | –

Other lines, results leading:

Row | MFI at 100 nM [MFI] | MFI at 11.1 nM [MFI] | Substance
40 | 18300 | – | CD155 variant IgV-Fc P18S, L79P, L104M, T107M (from UniProt P15151 24-139) (Fc fusion)
41 | 11700 | – | CD155 variant IgV-Fc A13R, D23Y, E37P, S42P, Q62Y, A81E (from UniProt P15151 24-139) (Fc fusion)

target: T3, TIGIT (human); assay: flow cytometry, TIGIT-expressing cells

Row | Substance | MFI at 100 nM [MFI]
42 | CD155 variant IgV-Fc L79P, L104M (from UniProt P15151 24-139) (Fc fusion) | 3210
43 | CD155 variant IgV-Fc P18S, T45S, T61K, S65W, S67A, F91S, G111R (from UniProt P15151 24-139) (Fc fusion) | 125000
44 | CD155 variant IgV-Fc P18S, V41A, S42G, T45G, L104N (from UniProt P15151 24-139) (Fc fusion) | 3820

Second part, the substance after the results:

Row | MFI at 100 nM [MFI] | Substance
45 | 4160 | CD155 variant IgV-Fc A13R, D23Y, E37P, S42P, Q62Y, A81E (from UniProt P15151 24-139) (Fc fusion)
46 | 5900 | CD155 variant IgV-Fc P18L, E37S, Q62M, G80S, A81P, G99Y, S112N (from UniProt P15151 24-139) (Fc fusion)
